Measurements published in the DeepSol protein solubility set.

Assay: soluble on expression in E. coli; label from the status in PepcDB or PDB records

| Sequence | soluble on expression in E. coli |
| --- | --- |
| MVKDLSDMSLKELWQLFPIFLVEHKEEWEDWYEEEKERLLHLLPSQSIKSISHIGSTAVPDIWAKNIVDILLEVPEKEDLQDFKKRLLDAGYLLMSEGEKRLSFNKGYTKDGFAEKVFHLHLRYQGDNDELYFRDYLREYPEVAKDYERLKLGLWEKYEHNRDAYTDAKSDFIRKYTQKAKKNDKGKDN | not soluble |
| MDMYSMKISEGVERIDGVTANSYLLTLDGKNILIDTGTAGGGKKIIDYFNKNGTKPDYVIVTHHHADHVGGLKEISERFNPEIYVPDLEMKIIRGEEDPPKPRSFFGRMITGMLKFEPVKDVKPVSKASIPGIEEMATPGHTIGSTSYIVEDLHILFSGDAAVESGGELKINKSFSYEINSAERSLEIIKGMKGYLVLPGHGDKVQLLEHHHHHH | soluble |
| MTWNPLALATALQTVPEQNIDVTNSENALIIKMNDYGDLQINILFTSRQMIIETFICPVSSISNPDEFNTFLLRNQKMMPLSSVGISSVQQEEYYIVFGALSLKSSLEDILLEITSLVDNALDLAEITEEYSHLEHHHHHH | soluble |
| MGSDKIHHHHHHMHDVLIIGSGVIGMSIARHLSATHLDVAVIDRDVPGKHASYKAGGMLGAQNEFTEDSDLFQLAIESRAMFPQLSKSLLDETGIDIQFKNSGLIKIANEHDDISSIKRQYQFLNSQDRSVKQLSDDDLLQLTHGEVKPSYAAIHIPHDGQINAHHYTLALLESMKLRDIKRYESTEVTSIERHNGYYSVKTDQSSTIEAHKIIVAGGAWSSQLLTQYHLQRQVIGVKGEVILLENNDLSLTETLFMTNGCYIVPKQPNRFLIGATSEFNNYSVGTTDEGMDWLLRHAYHRVPQLKDSHILKKWSGVRPYTEKEMPVMDQIDDGLYVISGHYRNGILLSPIIGRDIANWLLSGIKPSRYSSFTVTRRNNHEVYH | not soluble |
| MNQTLLSSFGTPFERVENALAALREGRGVMVLDDEDRENEGDMIFPAETMTVEQMALTIRHGSGIVCLCITEDRRKQLDLPMMVENNTSAYGTGFTVTIEAAEGVTTGVSAADRITTVRAAIADGAKPSDLNRPGHVFPLRAQAGGVLTRGGHTEATIDLMTLAGFKPAGVLCELTNDDGTMARAPECIEFANKHNMALVTIEDLVAYRQAHERKAS | soluble |
| MDVVEVAGSWWAQEREDIIMKYEKGHRAGLPEDKGPKPFRSYNNNVDHLGIVHETELPPLTAREAKQIRREISRKSKWVDMLGDWEKYKSSRKLIDRAYKGMPMNIRGPMWSVLLNTEEMKMKNPGRYQIMKEKGKRSSEHIQRIDRDVSGTLRKHIFFRDRYGTKQRELLHILLAYEEYNPEVGYCRDLSHIAALFLLYLPEEDAFWALVQLLASERHSLQGFHSPNGGTVQGLQDQQEHVVATSQPKTMGHQSASRRRPGVARGHVFATGSLIPGPGMRTLCSSILGPL | not soluble |
| MGSDKIHHHHHHMSQILQNFIKQAQYNPLHSLEEWEEDLLNRYPDPHSIVKEGKTTQEYRNYETPTRETVKEFYRLNHINQTYNFVLEKEKNFLKFDKKEMSVWDAVEFLNQLVDDSDPDTEMDQLQHLLQTSEAIRADGHPDWMVLTGFFHDMGKVLCLFGEPQWATVGDTYPVGCAFSDKIVFSEFFQENPDYNNPNYNTKYGIYEPNCGLINVHISWGHDEYFYQMMKNYLPEPALYMLRYHSFYPQHRENAYKHLMDNHDREMFKWVKLFNPYDLYSKNPTPPDWQKLRPYYEDLVAKYLPATLKF | not soluble |
| MNFFKRKFSFSEDEGEPMDDVNSGPPSSFSFQSIANKVSNTISAPTSPAKSRESLAAALERSLNHDRSRGEPLMKDAKVLLVIDSHHVDWSKYFRNHTEYAIRVEQGDIDELDVMCTEKNCTVELNTPGKDVRTFTPSAVFLGAGATRCAQLKTITRAFIAAHIPFLNSHTSAVAFLDRNNLKKQLKKITLSDGASIPMLPIVHYPHFHKFHQSQSSTYPMVVSVNEGFQGIGKIKVNNHEELCDVEGMLQIMSKGDTEVEVQPFVDAKYDLHIQKIGHEYKTFIRRGICKHWKSNVGSSVLEQISTCERHKKYLKAITDHVGPMHICSIDILVSKEGREFVHDVNDVIAYFGESAEDDRRAASLLLRALVAPRITSPIAAEPPATSPTTSAVTNGHGNHGPAPAVPTRRLPPHPSSSSAAPPRGHMSDKVESRHKDHYDPPPQIPRTGSRESVSYVDDTMGQLKRTFAGFFGE | not soluble |
| GMHLKEKITTIIQGQRTGVLSTVRNDKPHSAFMMFFHEDFVLYVATDRQSKKITDIENNPNVHVLLGREGKKLDEDYIEVEGLASIEEDSTLKNKFWNNSLKRWLLRPEDPNYVLIKINPDTIYYIDGAGTTEPEFLRL | soluble |
| MGSDKIHHHHHHMTFSAKNAAGETTGGVFTVALDRCAVYGRASSGAVCGSLLESAGWRPAAGSRVLVKPNLLRAQPDGLCCTHPQVVRAAVEYALDCGAVVTVGDSPAFGSAERVAQAVGLTDALQGLGVRVVTLDDPVDCRLPSGLRVGVARAALEADALLNVPRVKVHCQMRLTLAVKNLFGCVCGVRKAVAHTRHGDRGNRFEALIVELAERLPPSGVLLDGITAMHRTGPSGGDPYLLGLLGASCSSVAMDTAVGTLLGAAPETIPLWAELRRRKQPAAFVENLHFPVLFPADFSPQGVTPDGFCIPQVLKPVSFRPATLLRSLVRRMWHRYGPSA | not soluble |
| MDKKTIYFICTGNSCRSQMAEGWGKEILGEGWNVYSAGIETHGVNPKAIEAMKEVDIDISNQTSDLIDNDILKQSDLVVTLCSDADNNCPILPPNVKKEHWGFDDPAGKEWSEFQRVRDEIKLAIEKFKLR | soluble |
| MAHHHHHHMNQDLDKELREALQQDKYDLQLFLRFLKSYVVSGSQPEKQLLLGILLQALPRFHTSDFSACISLISSHVQDASYIEKDIILIYDLENYLSSGNFPQFWQVWRESEGTLPARPSFEPNMRAAILTVIGCTLGHIQTKDLSVYLGLKSGEKLEEVLREAARIAGDAVQLVGADEQAVVFQKSVFNAPESDSNQELKRFSDTVTIVSL | soluble |
| MFLNGNCLETLKKKEPEGGRRRLSHPGNMGWMRPSQETTPPDRSHHSGFGLFCGDPGPEIEPFSLWVFPQEMVLEIHQLFMDHEYPCHHITSHCTWVAAHWTTSQSCAAWQGCRRACCSTWWKSPAQCTRPTVMSATFETAQEPGPS | not soluble |
| NIYLDKRITKQATQFLEAARAIDSREHLISGYRSVAYQEKLFNSYVTQEMTSNPNLTRGQAEKLVKTYSQPAGASEHQTGLAMDMSTVDSLNESDPRVVSQLKKIAPQYGFVLRFPDGKTAETGVGYEDWHYRYVGV | not soluble |
| MSDDKKSLINIELLPKELITNLFGPATKSIGEGLGGIVNYVVGPLRKLNVVSEKSYIDFVEKINSKTDSIPVDNRDDSKLGFALKTMEDARYQLEDEDMREYFSNLLAGLVDNRKNQDSSPRFSIILSELTTIDANLLKKLYKLSITPTIKVRVQAPNGNGIDYIENLILTQKGIVENNFSDLSPSLQTLRSYGLIDIRPSIELTQKKHTKIYDDFENSTYFKTLKYNLNSFFANSSFFKDTGFSIISIRGSIHVTDLGFLFCSKIFSSEEE | not soluble |
| MIVIFVDFDYFFAQVEEVLNPQYKGKPLVVCVYSGRTKTSGAVATANYEARKLGVKAGMPIIKAMQIAPSAIYVPMRKPIYEAFSNRIMNLLNKHADKIEVASIDEAYLDVTNKVEGNFENGIELARKIKQEILEKEKITVTVGVAPNKILAKIIADKSKPNGLGVIRPTEVQDFLNELDIDEIPGIGSVLARRLNELGIQKLRDILSKNYNELEKITGKAKALYLLKLAQNKYSEPVENKSKIPHGRYLTLPYNTRDVKVILPYLKKAINEAYNKVNGIPMRITVIAIMEDLDILSKGKKFKHGISIDNAYKVAEDLLRELLVRDKRRNVRRIGVKLDNIIINKTNLSDFFDI | soluble |
| MSLAAGYGVPLEQGEHRLGSSRVVVETAGDGLVRYRREVDGGGSVELLFDGTVDLQPVPMYPIFKPLYVTRFILLRIEPRIVVSPGSERTFYTLIPVDTAIYAFPGDEPTIVDVIPMDDKPSLVLYGPPESGVVARLAISSVSPRPEEPSLGRALARIAVKNISGTPVTLSRILLDSAPLKLYFERGTWRAYTQELAVEVERYRGVVMYRQPFREGTMPISDPPEVRPPRFFQRTDMMWGVEGHHHHHH | not soluble |
